Assay results reported in article PMC6370948, “Complement Dependent and Independent Interaction Between Bovine Conglutinin and Mycobacterium bovis BCG: Implications in Bovine Tuberculosis” (Frontiers in Immunology, 2018).

Biological target: the molecule itself
Assay: cross-linking; 20 μg/ml purified rfBC with BS3 (5 μl of 1 mM added to 100 μl), room temperature, 0-64 min, stopped with 20 mM Tris-HCl pH 7.5; SDS-PAGE and Coomassie staining

B1: recombinant truncated form of bovine conglutinin (rfBC), composed of the α-helical neck region and the CRD (domain or fragment, bovine (Bos taurus), UniProt P23805 217-371, looked up)
chain: EVNALKQRVTILDGHLRRFQNAFSQYKKAVLFPDGQAVGEKIFKTAGAVKSYSDAEQLCREAKGQLASPRSSAENEAVTQMVRAQEKNAYLSMNDISTEGRFTYPTGEILVYSNWADGEPNNSDEGQPENCVEIFPDGKWNDVPCSKQLLVICEF
notes: bovine conglutinin, neck region (amino acids 197-224) and C-terminal CRD (amino acids 225-351); numbers count on: the mature protein; also called recombinant fragment of conglutinin; recombinant bovine conglutinin
stoichiometry N: 3
